Results as given in patent publication US20240052042A1 (Novartis, published 2024).
Residue numbers refer to the chain shown, from its start.

Columns and labels:
[1] = target: T1, human NPR1 on CHO-K1 cells in the presence of ANP (human, UniProt P01160 124-151); experiment: flow cytometry (FL2-H) on hNPR1 CHO-K1 cells with saturating ANP, IgG titrated; control parental CHO-K1 [Cont.), panel YY04]
T1 construct: also called hNPR1 CHO K1 + 100 nM ANP
T1 sequence: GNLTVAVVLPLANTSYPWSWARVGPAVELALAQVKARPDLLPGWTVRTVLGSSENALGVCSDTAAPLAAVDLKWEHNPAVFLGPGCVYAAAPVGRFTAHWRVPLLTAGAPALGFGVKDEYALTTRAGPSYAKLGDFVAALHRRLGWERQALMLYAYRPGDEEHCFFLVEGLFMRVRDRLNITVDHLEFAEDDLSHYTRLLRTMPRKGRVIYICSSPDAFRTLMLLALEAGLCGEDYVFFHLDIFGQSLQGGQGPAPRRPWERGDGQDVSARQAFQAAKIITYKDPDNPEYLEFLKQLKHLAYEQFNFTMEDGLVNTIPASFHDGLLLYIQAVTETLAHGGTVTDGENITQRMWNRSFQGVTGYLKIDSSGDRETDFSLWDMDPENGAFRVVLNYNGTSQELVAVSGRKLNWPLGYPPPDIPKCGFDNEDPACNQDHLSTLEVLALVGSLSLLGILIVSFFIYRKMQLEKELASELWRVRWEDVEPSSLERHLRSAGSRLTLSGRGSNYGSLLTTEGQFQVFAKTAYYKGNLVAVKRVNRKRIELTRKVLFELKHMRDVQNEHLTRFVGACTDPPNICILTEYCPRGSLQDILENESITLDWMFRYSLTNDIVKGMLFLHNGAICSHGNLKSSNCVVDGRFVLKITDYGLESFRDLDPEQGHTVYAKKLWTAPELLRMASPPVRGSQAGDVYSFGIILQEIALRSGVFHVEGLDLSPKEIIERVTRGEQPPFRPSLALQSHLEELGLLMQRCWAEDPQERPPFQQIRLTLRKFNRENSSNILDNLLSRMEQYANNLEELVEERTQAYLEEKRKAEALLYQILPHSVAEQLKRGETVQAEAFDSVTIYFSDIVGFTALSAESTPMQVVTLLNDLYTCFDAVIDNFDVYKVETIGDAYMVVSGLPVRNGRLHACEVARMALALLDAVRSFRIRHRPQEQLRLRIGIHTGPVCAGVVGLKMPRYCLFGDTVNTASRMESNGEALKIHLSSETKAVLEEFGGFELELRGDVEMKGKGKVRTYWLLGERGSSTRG
T1 sequence (peptide): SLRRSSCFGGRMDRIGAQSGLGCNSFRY

[2] = target: T1, human NPR1 on CHO-K1 cells in the …; experiment: flow cytometry, hNPR1 CHO-K1 cells, IgG
rNPR1-ANP complex [3] = target: T2, rNPR1-ANP complex (rat, UniProt P01160 124-151 (human entry), limits assumed); experiment: ELISA, 1 µM IgG; set-up: unit not given here
T2 construct: rNPR1 antigen in the presence of ANP; also called rNPR1 + 100 nM ANP
T2 sequence: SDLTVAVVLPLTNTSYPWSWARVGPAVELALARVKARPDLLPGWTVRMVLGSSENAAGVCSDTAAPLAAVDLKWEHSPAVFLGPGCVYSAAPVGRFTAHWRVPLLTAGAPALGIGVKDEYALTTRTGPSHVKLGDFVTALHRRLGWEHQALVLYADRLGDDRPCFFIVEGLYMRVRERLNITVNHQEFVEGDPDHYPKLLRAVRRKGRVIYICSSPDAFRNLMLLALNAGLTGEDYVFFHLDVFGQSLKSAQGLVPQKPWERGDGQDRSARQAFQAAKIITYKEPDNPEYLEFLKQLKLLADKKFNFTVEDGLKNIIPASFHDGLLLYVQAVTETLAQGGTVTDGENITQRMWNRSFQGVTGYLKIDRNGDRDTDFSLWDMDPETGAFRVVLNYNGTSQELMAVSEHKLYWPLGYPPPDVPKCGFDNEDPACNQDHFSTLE
T2 sequence (peptide): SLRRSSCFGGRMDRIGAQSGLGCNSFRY

hNPR1-ANP complex [4] = target: T3, hNPR1-ANP complex (human, UniProt P01160 124-151, limits assumed); experiment: ELISA, 1 µM IgG; set-up: unit not given here
T3 construct: hNPR1 antigen in the presence of ANP; also called hNPR1 + 100 nM ANP
T3 sequence: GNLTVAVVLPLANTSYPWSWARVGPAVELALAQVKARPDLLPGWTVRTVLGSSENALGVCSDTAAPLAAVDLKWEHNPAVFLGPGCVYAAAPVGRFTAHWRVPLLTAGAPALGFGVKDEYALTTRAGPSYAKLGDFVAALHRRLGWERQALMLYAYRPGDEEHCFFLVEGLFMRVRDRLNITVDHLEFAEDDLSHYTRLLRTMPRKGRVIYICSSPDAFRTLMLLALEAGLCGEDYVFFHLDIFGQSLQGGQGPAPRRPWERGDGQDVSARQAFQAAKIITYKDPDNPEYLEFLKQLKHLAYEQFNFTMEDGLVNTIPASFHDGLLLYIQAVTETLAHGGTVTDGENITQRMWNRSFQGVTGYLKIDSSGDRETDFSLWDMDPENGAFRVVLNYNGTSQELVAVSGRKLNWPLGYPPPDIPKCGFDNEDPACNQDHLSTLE
T3 sequence (peptide): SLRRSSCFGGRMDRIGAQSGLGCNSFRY

[5] = target: T1, human NPR1 on CHO-K1 cells in the …; experiment: flow cytometry (FL2-H) on hNPR1 CHO-K1 cells with saturating ANP, IgG titrated; control parental CHO-K1 [panel XX04]
rat NPR1 (rNPR1) [6] = target: T4, rat NPR1 (rNPR1) (rat, UniProt P18910 29-469, limits assumed); experiment: ELISA, IgG titrated on coated antigen, fluorescence [Cont.]
T4 construct: Soluble antigen
T4 sequence: T2 sequence

rNPR1-ANP complex [7] = target: T2, rNPR1-ANP complex; experiment: ELISA, IgG titrated on coated antigen with ANP (250 fold molar excess), fluorescence [Cont.]
[8] = target: W74R hNPR1 mutant in the presence of ANP (human) (UniProt P01160); experiment: ELISA, IgG
[9] = target: constitutively active human NPR1 mutant (W74R) (human) (UniProt P16066); experiment: ELISA, IgG
[10] = target: human NPR1 on CHO-K1 cells in the presence of ANP (human) (UniProt P01160); experiment: flow cytometry, hNPR1 CHO-K1 cells, IgG
[11] = target: T1, human NPR1 on CHO-K1 cells in the …; experiment: flow cytometry (FL2-H) on hNPR1 CHO-K1 cells with saturating ANP, IgG titrated; control parental CHO-K1 [Cont.), panel XX08]
rat NPR1 (rNPR1) [12] = target: T4, rat NPR1 (rNPR1); experiment: ELISA, IgG titrated on coated antigen, fluorescence [Cont.]; remark: listed apart in the source
[13] = target: T5, human Natriuretic Peptide Receptor 1 (hNPR1) (human, UniProt P16066 33-473, limits assumed); experiment: as above
T5 construct: pannings used NPR1-hFc; also called NPR1-hFc
T5 sequence: T3 sequence

[14] = target: T1, human NPR1 on CHO-K1 cells in the …; experiment: flow cytometry (FL2-H) on hNPR1 CHO-K1 cells with saturating ANP, IgG titrated; control parental CHO-K1 [panel XX01]
hNPR1-ANP complex [15] = target: T3, hNPR1-ANP complex; experiment: FRET ANP competition assay, IgG titrated on hNPR1 with Cy5-labeled ANP; negative values mean more ANP signal [panel XX01]
Description: The same 31 IgGs were tested for ANP competition using a Fluorescence Resonance Energy Transfer (FRET)-based assay in which the NPR1-specific antibodies competed with ANP for binding to NPR1. In this FRET based assay (see FIG. 3), Eu-labeled Streptavidin (for measurement of IgGs) or Eu-labeled anti-hFc antibody (for measurement of FabCys) was used as an energy donor, while Cy5-labeled ANP was used as an acceptor (for all measurements). The resulting fluorescent signal was decreased by ANP-competitive antibodies. The assay was performed as follows: antibodies were mixed with NPR1 and incubated for 5 minutes at room temperature. After addition of the Eu-labeled donor and incubation for 30 minutes at room temperature, the Cy5-ANP solution was added. After a further 60-minute incubation, readout was performed using a TECAN Infinite M1000 Pro using an excitation wavelength of 317 nm and an emission wavelength of 665 nm. Percentage of ANP competition was calculated according to the following formulae: […]

B1: YY04 (IgG format) (antibody, V domains shown)
VH: EVQLVESGGGLVKPGGSLRLSCAASGFTFSNYWISWVRQAPGKGLEWVGRIKSKTYGGTTDYAEPVKGRFTISRDDSKNTLYLQMNSLKTEDTAVYYCAREKYSIRARGHGDYGFDVWGQGTLVTVSS
VL: DIQMTQSPSSLSASVGDRVTITCRASQGISNYLAWYQQKPGKVPKLLIYAASTLQSGVPSRFSGSGSGTDFTLTISSLQPEDVATYYCQQGYHAPFTFGQGTKVEIKR
notes: also called YY04_LALA
EC50 (read off the curve) [1]: ~0.2 nM | flow cytometry S/BG at 1 µM IgG [2]: 33 S/BG | ELISA binding at 1 µM IgG (rNPR1-ANP complex [3]): 54 | ELISA binding at 1 µM IgG (hNPR1-ANP complex [4]): 60

B2: XX04 (IgG format) (antibody, V domains shown)
VH: QVQLLESGGGLVQPGGSLRLSCAASGFTFSSYWMNWVRQAPGKGLEWVSAISSDGSYTYYADSVKGRFTISRDNSKNTLYLQMNSLRAEDTAVYYCARDRYSMIYSYGAGAFDYWGQGTLVTVSS
VL: DIQMTQSPSSLSASVGDRVTITCRASQGISSYLAWYQQKPGKAPKLLIYTASTLQSGVPSRFSGSGSGTDFTLTISSLQPEDFATYYCQQEWVKPRTFGQGTKVEIK
EC50 (read off the curve) [5]: ~2 nM

B3: WW06 (IgG format) (antibody, V domains shown)
VH: QVQLVQSGAEVKKPGESLKISCKGSGYSFTSYWIAWVRQMPGKGLEWMGRIDPDNSYTRYSPSFQGQVTISADKSISTAYLQWSSLKASDTAMYYCARWLSPGYALGEQPAGMDHWGQGTLVTVSS
VL: DIVLTQPPSVSGAPGQRVTISCTGSSSNIGAGYAVHWYQQLPGTAPKLLIYSNNKRPSGVPDRFSGSKSGTSASLAITGLQAEDEADYYCQSYDLQKSSRVFGGGTKLTVLG
notes: also called WW06_LALA
binding result (rat NPR1 (rNPR1) [6]): no binding (tested: 1000 nM) | binding result (rNPR1-ANP complex [7]): no binding (tested: 1000 nM) | EC50 [8]: 0.8 nM | EC50 [9]: 0.9 nM | flow cytometry S/BG at 2 µM IgG [10]: 1.1 S/BG

B4: XX08 (antibody, V domains shown)
VH: EVQLLESGGGLVQPGGSLRLSCAASGFTFNTHYIHWVRQAPGKGLEWVSSIGGQGGMTLYADSVKGRFTISRDNSKNTLYLQMNSLRAEDTAVYYCARERGYVYYHMFDPWGQGTLVTVSS
VL: DIVLTQSPATLSLSPGERATLSCRASQSITRNYLAWYQQKPGQAPRLLIYGASSRATGIPARFSGSGSGTDFTLTISSLEPEDFAVYYCQQHSMYPRTFGQGTKVEIKR
notes: x axis reads IgG conc; [nM]; also called XX08 (IgG format)
EC50 (read off the curve) [11]: ~2 nM | EC50 (read off the curve) (rat NPR1 (rNPR1) [12]): ~20 nM | EC50 (read off the curve) [13]: ~20 nM

B5: XX01 (IgG format) (antibody, V domains shown)
VH: B4 VH with G52S, G53S, Q54S, G56Q, M57S, L59Y
VL: DIVLTQSPATLSLSPGERATLSCRASQSITRNYLAWYQQKPGQAPRLLIYGASSRATGIPARFSGSGSGTDFTLTISSLEPEDFAVYYCQQHSMYPRTFGQGTKVEIK
EC50 (read off the curve) [14]: ~0.8 nM | EC50 (read off the curve) (hNPR1-ANP complex [15]): ~0.1 nM
